According to the supplement of paper PMC10065799, “High-throughput profiling of sequence recognition by tyrosine kinases and SH2 domains using bacterial peptide display” (eLife, 2023):

System: AncSZ
Experiment: phosphorylation enrichment, bacterial display (enrichment ratio); higher = better substrate or ligand; peptides without Tyr show the background
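Further: 11-residue human phosphosite peptides and single-mutation variants displayed on the E. coli surface, counted by deep sequencing, each peptide's frequency after selection divided by its frequency in the unselected input library; frequency after pTyr selection over input frequency; kinase dosed for 20-30% of maximal phosphorylation in three min.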

Sequence | phosphorylation enrichment
EDDIIYTQDFT [STK11_Y362] | 1.41
LDAGEYCVPRG [BEX1_Y43] | 8.78
NKEAIYSGFIR [SMCHD1_Y283_YF] | 0.78
IATAIYSGDKI [UGGT2_Y823] | 0.543
GPKFGYDEIDN [ACOX1_Y232] | 0.993
INSLKYAFNIS [EIF2B5_Y583_YF] | 0.722
HSREDYFECFQ [ZIM2_Y411_Q408R] | 2.12
PRLMLYNPTTY [EGFR_Y270_P266R] | 0.922
FPPTHYIRRVP [SLC4A11_Y820_YF] | 0.953
ATVRPYRPYII [LRP5_Y1528_A1525V] | 0.777
PLFKICVAELI [MRPL28_Y230_Y230C] | 1.2
FEREQYADRTR [RBM4_Y355_A359T_YF] | 0.625
PPAPRYHHSAV [LZTR1_Y119] | 0.655
TLNHQYDYTFH [CSNK1A1_Y292_D297H] | 0.998
KDFNKYVAYIE [KDM4B_Y31] | 0.718
SDVDLYQVRTA [PSMD9_Y70] | 0.792
DVRQEYSGMIL [PLXND1_Y616_P617S] | 0.795
DENWFYTRPAS [RPS19_Y54_A57P] | 1.46
HPWPRYTTRAP [FNDC1_Y1281_Q1280R] | 0.802
TFGQVYKGPHV [TNIK_Y40_R43P_YF] | 0.59
LLVVVYKFRCF [PSEN1_Y154_L153V_YF] | 0.949
QQLDEYQELLD [LMNA_Y359] | 1.63
RVKTPYSLKRW [BMPR2_Y979] | 1.19
ADRTRYSAFGG [RBM4_Y361_A359T] | 0.599
ADEEYYEIIAA [FEStide_no-pY_2014] | 3.85
TKDTFYKQPMV [GBA_Y451_F456V] | 0.726
TENAGYYFRIS | 1.44
FHKALYTVRSF [PDE6C_Y266_YF] | 0.708
DMLTLYVNTAA [SMCHD1_Y403_Q400L] | 1.4

System: c-Abl (mouse)
Experiment: as above

Sequence | phosphorylation enrichment
EDDIIYTQDFT [STK11_Y362] | 0.957
LDAGEYCVPRG [BEX1_Y43] | 3.62
NKEAIYSGFIR [SMCHD1_Y283_YF] | 33.6
IATAIYSGDKI [UGGT2_Y823] | 0.422
GPKFGYDEIDN [ACOX1_Y232] | 0.531
INSLKYAFNIS [EIF2B5_Y583_YF] | 0.632
HSREDYFECFQ [ZIM2_Y411_Q408R] | 1.28
PRLMLYNPTTY [EGFR_Y270_P266R] | 0.812
FPPTHYIRRVP [SLC4A11_Y820_YF] | 0.71
ATVRPYRPYII [LRP5_Y1528_A1525V] | 0.677
PLFKICVAELI [MRPL28_Y230_Y230C] | 0.718
FEREQYADRTR [RBM4_Y355_A359T_YF] | 0.588
PPAPRYHHSAV [LZTR1_Y119] | 0.677
TLNHQYDYTFH [CSNK1A1_Y292_D297H] | 0.512
KDFNKYVAYIE [KDM4B_Y31] | 0.483
SDVDLYQVRTA [PSMD9_Y70] | 0.735
DVRQEYSGMIL [PLXND1_Y616_P617S] | 0.484
DENWFYTRPAS [RPS19_Y54_A57P] | 0.673
HPWPRYTTRAP [FNDC1_Y1281_Q1280R] | 0.646
TFGQVYKGPHV [TNIK_Y40_R43P_YF] | 0.537
LLVVVYKFRCF [PSEN1_Y154_L153V_YF] | 1.19
QQLDEYQELLD [LMNA_Y359] | 1.01
RVKTPYSLKRW [BMPR2_Y979] | 0.944
ADRTRYSAFGG [RBM4_Y361_A359T] | 0.495
ADEEYYEIIAA [FEStide_no-pY_2014] | 1.14
TKDTFYKQPMV [GBA_Y451_F456V] | 1.03
TENAGYYFRIS | 0.763
FHKALYTVRSF [PDE6C_Y266_YF] | 0.666
DMLTLYVNTAA [SMCHD1_Y403_Q400L] | 0.766

System: Fer (mouse)
Experiment: as above

Sequence | phosphorylation enrichment
EDDIIYTQDFT [STK11_Y362] | 0.655
LDAGEYCVPRG [BEX1_Y43] | 1.47
NKEAIYSGFIR [SMCHD1_Y283_YF] | 5.17
IATAIYSGDKI [UGGT2_Y823] | 0.396
GPKFGYDEIDN [ACOX1_Y232] | 0.344
INSLKYAFNIS [EIF2B5_Y583_YF] | 0.385
HSREDYFECFQ [ZIM2_Y411_Q408R] | 0.811
PRLMLYNPTTY [EGFR_Y270_P266R] | 0.7
FPPTHYIRRVP [SLC4A11_Y820_YF] | 0.747
ATVRPYRPYII [LRP5_Y1528_A1525V] | 0.462
PLFKICVAELI [MRPL28_Y230_Y230C] | 0.707
FEREQYADRTR [RBM4_Y355_A359T_YF] | 0.436
PPAPRYHHSAV [LZTR1_Y119] | 0.587
TLNHQYDYTFH [CSNK1A1_Y292_D297H] | 1.4
KDFNKYVAYIE [KDM4B_Y31] | 0.359
SDVDLYQVRTA [PSMD9_Y70] | 0.648
DVRQEYSGMIL [PLXND1_Y616_P617S] | 0.567
DENWFYTRPAS [RPS19_Y54_A57P] | 0.676
HPWPRYTTRAP [FNDC1_Y1281_Q1280R] | 0.449
TFGQVYKGPHV [TNIK_Y40_R43P_YF] | 0.466
LLVVVYKFRCF [PSEN1_Y154_L153V_YF] | 0.471
QQLDEYQELLD [LMNA_Y359] | 0.598
RVKTPYSLKRW [BMPR2_Y979] | 0.756
ADRTRYSAFGG [RBM4_Y361_A359T] | 0.4
ADEEYYEIIAA [FEStide_no-pY_2014] | 5.58
TKDTFYKQPMV [GBA_Y451_F456V] | 0.38
TENAGYYFRIS | 0.453
FHKALYTVRSF [PDE6C_Y266_YF] | 0.394
DMLTLYVNTAA [SMCHD1_Y403_Q400L] | 0.535

System: c-Src
Experiment: as above

Sequence | phosphorylation enrichment
EDDIIYTQDFT [STK11_Y362] | 1.11
LDAGEYCVPRG [BEX1_Y43] | 0.816
NKEAIYSGFIR [SMCHD1_Y283_YF] | 9.78
IATAIYSGDKI [UGGT2_Y823] | 2.69
GPKFGYDEIDN [ACOX1_Y232] | 0.453
INSLKYAFNIS [EIF2B5_Y583_YF] | 0.379
HSREDYFECFQ [ZIM2_Y411_Q408R] | 0.91
PRLMLYNPTTY [EGFR_Y270_P266R] | 0.526
FPPTHYIRRVP [SLC4A11_Y820_YF] | 0.475
ATVRPYRPYII [LRP5_Y1528_A1525V] | 0.586
PLFKICVAELI [MRPL28_Y230_Y230C] | 0.394
FEREQYADRTR [RBM4_Y355_A359T_YF] | 0.419
PPAPRYHHSAV [LZTR1_Y119] | 0.384
TLNHQYDYTFH [CSNK1A1_Y292_D297H] | 1.16
KDFNKYVAYIE [KDM4B_Y31] | 0.364
SDVDLYQVRTA [PSMD9_Y70] | 1.89
DVRQEYSGMIL [PLXND1_Y616_P617S] | 0.477
DENWFYTRPAS [RPS19_Y54_A57P] | 0.489
HPWPRYTTRAP [FNDC1_Y1281_Q1280R] | 0.654
TFGQVYKGPHV [TNIK_Y40_R43P_YF] | 0.433
LLVVVYKFRCF [PSEN1_Y154_L153V_YF] | 0.455
QQLDEYQELLD [LMNA_Y359] | 0.726
RVKTPYSLKRW [BMPR2_Y979] | 0.616
ADRTRYSAFGG [RBM4_Y361_A359T] | 0.399
ADEEYYEIIAA [FEStide_no-pY_2014] | 2.47
TKDTFYKQPMV [GBA_Y451_F456V] | 0.395
TENAGYYFRIS | 0.41
FHKALYTVRSF [PDE6C_Y266_YF] | 0.389
DMLTLYVNTAA [SMCHD1_Y403_Q400L] | 0.524
